The target of one experiment is T1, Human IL-12 (human, UniProt P29460 23-328; P29459 23-219).
T1 construct: also called human Interleukin-12
T1 sequence (looked up) 1: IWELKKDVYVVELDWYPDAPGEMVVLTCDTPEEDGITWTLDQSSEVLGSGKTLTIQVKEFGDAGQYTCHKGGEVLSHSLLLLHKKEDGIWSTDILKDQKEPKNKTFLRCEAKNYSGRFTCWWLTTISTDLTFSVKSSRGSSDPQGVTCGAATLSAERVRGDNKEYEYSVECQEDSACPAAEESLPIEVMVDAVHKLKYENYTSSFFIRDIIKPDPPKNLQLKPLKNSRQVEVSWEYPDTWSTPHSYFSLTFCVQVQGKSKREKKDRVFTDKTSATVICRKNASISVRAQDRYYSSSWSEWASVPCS
T1 sequence (looked up) 2: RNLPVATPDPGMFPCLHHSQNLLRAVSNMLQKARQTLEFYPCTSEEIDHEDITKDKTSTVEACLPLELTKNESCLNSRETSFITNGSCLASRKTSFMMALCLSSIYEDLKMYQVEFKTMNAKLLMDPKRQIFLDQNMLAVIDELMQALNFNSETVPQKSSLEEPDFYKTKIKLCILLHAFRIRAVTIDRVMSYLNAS
Description: SPR, BIACORE T200, 37 degrees C, pH 7.4; antibody captured by anti-human Fc antibody, human IL-12 injected at 5 and 20 nM; 1:1 binding model. On the procedure:
The affinity of anti-IL12 antibodies binding to human IL-12 at pH 7.4 was determined at 37 degrees C. using BIACORE® T200 instrument (GE Healthcare). […] (GE Healthcare) was immobilized onto all flow cells of a CM4 sensor chip using amine coupling kit (GE Healthcare). All antibodies and analytes were prepared in ACES pH 7.4 containing 20 mM ACES, 150 mM NaCl, 0.05% Tween 20, 0.005% NaN₃. Each antibody was captured onto the sensor surface by anti-human Fc antibody. Antibody capture levels were aimed at 50 resonance unit (RU). Human IL-12 was injected at 5 and 20 nM, followed by dissociation. Sensor surface was regenerated each cycle with 3M MgCl₂.
(In general: SPR reads the build-up and loss of mass on a sensor chip optically.)

The target in experiment [1] is T2, Human IL-12 receptor (human IL-12Rb1 and IL-12Rb2) (human, UniProt P42701 24-662; Q99665 24-862). Description: cell-based or functional assay.
T2 sequence (Q99665 24-862, chain 2 of 2, other chains not shown): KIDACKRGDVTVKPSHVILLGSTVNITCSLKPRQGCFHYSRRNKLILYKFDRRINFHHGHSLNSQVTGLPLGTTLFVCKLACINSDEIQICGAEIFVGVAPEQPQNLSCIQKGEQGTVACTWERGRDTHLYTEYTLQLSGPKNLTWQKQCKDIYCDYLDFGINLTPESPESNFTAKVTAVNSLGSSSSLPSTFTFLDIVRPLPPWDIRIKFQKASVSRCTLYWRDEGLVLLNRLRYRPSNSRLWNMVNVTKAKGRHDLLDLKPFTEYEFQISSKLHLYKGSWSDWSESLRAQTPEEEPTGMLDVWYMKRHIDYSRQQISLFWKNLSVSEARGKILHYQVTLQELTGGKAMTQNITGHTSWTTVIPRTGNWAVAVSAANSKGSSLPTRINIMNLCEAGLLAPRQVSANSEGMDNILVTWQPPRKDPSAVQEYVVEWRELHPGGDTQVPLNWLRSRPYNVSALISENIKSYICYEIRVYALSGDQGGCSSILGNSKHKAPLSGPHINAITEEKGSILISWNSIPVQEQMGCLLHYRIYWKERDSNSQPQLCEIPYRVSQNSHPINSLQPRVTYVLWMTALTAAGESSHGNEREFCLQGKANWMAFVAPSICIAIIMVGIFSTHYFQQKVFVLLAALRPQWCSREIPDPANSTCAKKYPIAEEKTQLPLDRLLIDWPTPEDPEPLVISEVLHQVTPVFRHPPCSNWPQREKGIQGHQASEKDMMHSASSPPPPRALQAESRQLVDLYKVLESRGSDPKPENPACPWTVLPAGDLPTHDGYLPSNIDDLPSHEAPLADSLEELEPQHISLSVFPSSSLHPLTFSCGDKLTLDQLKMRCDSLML
The target of experiment [2] is T2, Human IL-12 receptor (human IL-12Rb1 …). The experiment is described as follows: cell-based or functional assay. The source holds these as a separate data set.
Experiment [3] shares this target. Description: cell-based or functional assay. This is another data set of the same source.

B1: Anti-IL-12 antibody, Ab1, comprising VH release enhancing mutations (Ab101H89-12aa0054-C8/Ab102L69-SK1) (antibody, V domains shown)
VH: QVQLVQSGAEVKKPGSSVKVSCKASGGTFSDYYLHWSRQAPGQGLEWMGWIDPENGDTEYAPKFQGRVTITADESTSTAYMELSSLRSEDTAVYYCARNKELRYIDVWGQGTLVTVSS
VL: DIVMTQSPLSLPVTPGEPASISCRASQSISINLHWYQQKPGQAPRQLIAFASQSISGVPSRFSGSGSGTDFTLTISSLQPEDFATYYCQQSNSFPLTFGQGTKVEIKR
notes: Homodimer of a light and a heavy chain; Mutations V37S, F100aI / L46Q, Y49A; also called Ab101H89/Ab102L69
The Kd is the concentration at which binding is half-saturated. Read a low Kd as a tighter complex. Regarding B1, in the experiment with Human IL-12, the Kd came out at 6.52 nM.

B2: Anti-IL-12 antibody Ab1, variable region variant Ab101H89/Ab102L994 (antibody, V domains shown)
VH: QVQLVQSGAEVKKPGSSVKVSCKASGGTFSDYYLHWSRQAPGQGLEWMGWIDPENGDTEYAPKFQGRVTITADESTSTAYMELSSLRSEDTAVYYCARNKELRYIDVWGQGTLVTVSS
VL: DIVMTQSPLSLPVTPGEPASISCRASQSISINLHWYQQKPGQAPRQLIAFASQSISGVPSRFSGSGSGTDFTLTISSLQPEDFATYYCQQSYSFPLTFGQGTKVEIKR
notes: Mutations V37S, F100aI / L46Q, Y49A, N92Y
B2 had a Kd with Human IL-12 of 3.51 nM.

B3: Anti-IL-12 antibody Ab1, variable region variant Ab101H/Ab102L (antibody, V domains shown)
VH: QVQLVQSGAEVKKPGSSVKVSCKASGGTFSDYYLHWVRQAPGQGLEWMGWIDPENGDTEYAPKFQGRVTITADESTSTAYMELSSLRSEDTAVYYCARNKELRYFDVWGQGTLVTVSS
VL: DIVMTQSPLSLPVTPGEPASISCRASQSISINLHWYQQKPGQAPRLLIYFASQSISGVPSRFSGSGSGTDFTLTISSLQPEDFATYYCQQSNSFPLTFGQGTKVEIKR
What is called kon is the second-order rate constant of association. Low values mean slow association, high ones fast association. As to B3, in the experiment with Human IL-12, the Kd is 1.45 nM and the kon stood at 1.9e+06 M⁻¹ s⁻¹.

B4: Anti-IL-12 antibody Ab1, variable region variant Ab101H725/Ab102L1087 (antibody, V domains shown)
VH: QVQLVQSGAEVKKPGSSVKVSCKASGGTFSDYYLHWSRQAPGQGLEWMGWIDPENQDTEYAPKFQGRVTITADESTSTAYMELSSLRSEDTAVYYCARTKELRYIDVWGQGTLVTVSS
VL: DIVMTQSPLSLPVTPGEPASISCRSSDSISINLHWYQQKPGQAPRQLIAFASQSISGVPSRFSGSGSGTDFTLTISSLQPEDFATYYCQQSNSFPLTFGQGTKVEIKR
notes: Mutations V37S, G55Q, N95T, F100aI / A25S, Q27D, L46Q, Y49A
Turning to B4, the affinity with Human IL-12, expressed as Kd, was 1.27 nM.

B5: hIL12_His tag (ligand)
chain 1: IWELKKDVYVVELDWYPDAPGEMVVLTCDTPEEDGITWTLDQSSEVLGSGKTLTIQVKEFGDAGQYTCHKGGEVLSHSLLLLHKKEDGIWSTDILKDQKEPKNKTFLRCEAKNYSGRFTCWWLTTISTDLTFSVKSSRGSSDPQGVTCGAATLSAERVRGDNKEYEYSVECQEDSACPAAEESLPIEVMVDAVHKLKYENYTSSFFIRDIIKPDPPKNLQLKPLKNSRQVEVSWEYPDTWSTPHSYFSLTFCVQVQGKSKREKKDRVFTDKTSATVICRKNASISVRAQDRYYSSSWSEWASVPCS
chain 2: RNLPVATPDPGMFPCLHHSQNLLRAVSNMLQKARQTLEFYPCTSEEIDHEDITKDKTSTVEACLPLELTKNESCLNSRETSFITNGSCLASRKTSFMMALCLSSIYEDLKMYQVEFKTMNAKLLMDPKRQIFLDQNMLAVIDELMQALNFNSETVPQKSSLEEPDFYKTKIKLCILLHAFRIRAVTIDRVMSYLNAS
On to B5, for which the “EC50 (read off the curve), IL-12 luciferase reporter assay (without protease) [left graph]” value in experiment [1] was around 0.1 nM. Also, in experiment [2], the “EC50 (read off the curve), IL-12 luciferase reporter assay (+ MTSP1)” value was around 0.2 nM and the “EC50 (read off the curve), IL-12 luciferase reporter assay (without protease)” value is around 0.2 nM. Moreover, in experiment [3], the “EC50 (read off the curve), IL-12 luciferase reporter assay (+ MTSP1) [all three graphs]” value is around 0.2 nM and the “EC50 (read off the curve), IL-12 luciferase reporter assay (without protease) [all three graphs]” value was around 0.2 nM.
